Test results reported in patent US12295987B2, “Method of using a GIP/GLP1 co-agonist for diabetes” (Eli Lilly and Company, priority 2018, dated 2025).

Molecular target: T1, human gastric inhibitory peptide receptor (hGIPR) (Homo sapiens, UniProt P48546)
T1 construct: expressed in transfected cells; host or cells: HEK293
T1 sequence (P48546 22-466): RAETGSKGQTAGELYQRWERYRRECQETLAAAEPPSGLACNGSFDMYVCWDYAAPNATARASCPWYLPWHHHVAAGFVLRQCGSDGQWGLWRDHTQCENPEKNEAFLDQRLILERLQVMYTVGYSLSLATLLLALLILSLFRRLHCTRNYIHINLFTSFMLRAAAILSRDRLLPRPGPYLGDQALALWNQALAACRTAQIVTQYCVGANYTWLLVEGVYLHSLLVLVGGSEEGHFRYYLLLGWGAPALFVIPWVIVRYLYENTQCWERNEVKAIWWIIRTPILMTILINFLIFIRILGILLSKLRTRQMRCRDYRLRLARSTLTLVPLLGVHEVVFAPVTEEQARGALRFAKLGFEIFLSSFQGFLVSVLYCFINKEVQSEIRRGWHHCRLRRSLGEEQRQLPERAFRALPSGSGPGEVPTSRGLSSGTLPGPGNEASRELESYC
Assay: cAMP pharmacological functional assay in presence of 0.1% casein, hGIPR
Format: cell-based
Conditions: ratio of hGIPR to hGLP1R cAMP EC50 ratios

Substance | [hGIPR/hGLP1R] EC50 Ratio
Y-Aib-EGT-αMeF(2F)-TSDYSI-αMeL-LD-Orn-K((2-[2-(2-Amino-ethoxy)-ethoxy]-acetyl)2-(γGlu)-CO—(CH2)16—CO2H)AQ-Aib-EFI-(D-Glu)-YLIEGGPSSGAPPPS-NH2 (YXEGTXTSDYSIXLDXKAQXEFIXYLIEGGPSSGAPPPS; Aib, Orn, αMe residues, lipidated Lys, D-Glu, amide; (2)..(2) Xaa at position 2 is Aib; (6)..(6) Xaa at position 6 is alpha-MeF(2F); (13)..(13) Xaa at position 13 is alpha-MeL; (16)..(16) Xaa at position 16 is Orn; MOD_RES (17)..(17) K at position 17 is chemically modified by conjugation of the epsilon-amino group of the K side chain with (2-[2-(2-amino-ethoxy)-ethoxy]-acetyl)2-(gamma-Glu)-CO-(CH2)16- CO2H; (20)..(20) Xaa at position 20 is Aib; (24)) [Peptide 2] | 6.63
Y-Aib-EGT-αMeF(2F)-TSDYSI-αMeL-LD-Orn-K((2-[2-(2-Amino-ethoxy)-ethoxy]-acetyl)2-(γGlu)-CO—(CH2)18—CO2H)AQ-Aib-EFI-(D-Glu)-YLIEGGPSSGAPPPS-NH2 (YXEGTXTSDYSIXLDXKAQXEFIXYLIEGGPSSGAPPPS; Aib, Orn, αMe residues, lipidated Lys, D-Glu, amide; (2)..(2) Xaa at position 2 is Aib; (6)..(6) Xaa at position 6 is alpha-MeF(2F); (13)..(13) Xaa at position 13 is alpha-MeL; (16)..(16) Xaa at position 16 is Orn; MOD_RES (17)..(17) K at position 17 is chemically modified by conjugation of the epsilon-amino group of the K side chain with (2-[2-(2-amino-ethoxy)-ethoxy]-acetyl)2-(gamma-Glu)-CO-(CH2)18- CO2H; (20)..(20) Xaa at position 20 is Aib; (24)) [Peptide 3] | 3.61
Y-Aib-EGT-αMeF(2F)-TSDYSI-αMeL-LDEK((2-[2-(2-Amino-ethoxy)-ethoxy]-acetyl)2-(γGlu)-CO—(CH2)14—CO2H)AQ-Aib-EFI-(D-Glu)-YLIEGGPSSGAPPPS-NH2 (YXEGTXTSDYSIXLDEKAQXEFIXYLIEGGPSSGAPPPS; Aib, αMeF(2F), αMeL, D-Glu; lipidated K; amide; (2)..(2) Xaa at position 2 is Aib; (6)..(6) Xaa at position 6 is alpha-methyl-Phe(2F); (13)..(13) Xaa at position 13 is alpha-methyl-Leu; MOD_RES (17)..(17) Lys at position 17 is chemically modified by conjugation of the epsilon-amino group of the Lys side chain with (2-[2-(2-amino-ethoxy)-ethoxy]-acetyl)2-(gamma-Glu)-CO-(CH2)14- CO2H; (20)..(20) Xaa at position 20 is Aib; (24)..(24) Xaa at positi) [Peptide 208] | 9.08
Y-Aib-EGT-αMeF(2F)-TSDYSI-αMeL-LDEK((2-[2-(2-Amino-ethoxy)-ethoxy]-acetyl)2-(γGlu)-CO—(CH2)16—CO2H)AQ-Aib-EFI-(D-Glu)-YLIEGG-NH2 (YXEGTXTSDYSIXLDEKAQXEFIXYLIEGG; Aib, αMe, D-Glu, C18 diacid lipidation, C-amide; (2)..(2) Xaa at position 2 is Aib; (6)..(6) Xaa at position 6 is alpha-methyl-Phe(2F); (13)..(13) Xaa at position 13 is alpha-methyl-Leu; MOD_RES (17)..(17) Lys at position 17 is chemically modified by conjugation of the epsilon-amino group of the Lys side chain with (2-[2-(2-amino-ethoxy)-ethoxy]-acetyl)2-(gamma-Glu)-CO-(CH2)16- CO2H; (20)..(20) Xaa at position 20 is Aib; (24)..(24) Xaa at positi) [Peptide 220] | 4.63
Y-Aib-EGT-αMeF(2F)-TSDYSI-αMeL-LDEK((2-[2-(2-Amino-ethoxy)-ethoxy]-acetyl)2-(γGlu)-CO—(CH2)16—CO2H)AQ-Aib-EFI-(D-Glu)-YLIEGGPSSG-NH2 (YXEGTXTSDYSIXLDEKAQXEFIXYLIEGGPSSG; Aib, αMe, D-Glu, C18 diacid lipidation, C-amide; (2)..(2) Xaa at position 2 is Aib; (6)..(6) Xaa at position 6 is alpha-methyl-Phe(2F); (13)..(13) Xaa at position 13 is alpha-methyl-Leu; MOD_RES (17)..(17) Lys at position 17 is chemically modified by conjugation of the epsilon-amino group of the Lys side chain with (2-[2-(2-amino-ethoxy)-ethoxy]-acetyl)2-(gamma-Glu)-CO-(CH2)16- CO2H; (20)..(20) Xaa at position 20 is Aib; (24)..(24) Xaa at positi) [Peptide 219] | 5.69
Y-Aib-EGT-αMeF(2F)-TSDYSI-αMeL-LDEK((2-[2-(2-Amino-ethoxy)-ethoxy]-acetyl)2-(γGlu)-CO—(CH2)16—CO2H)AQ-Aib-EFI-(D-Glu)-YLIEGGPSSGAPPPS-NH2 (YXEGTXTSDYSIXLDEKAQXEFIXYLIEGGPSSGAPPPS; Aib, αMeF(2F), αMeL, D-Glu; lipidated K; amide; (2)..(2) Xaa at position 2 is Aib; (6)..(6) Xaa at position 6 is alpha-methyl-Phe(2F); (13)..(13) Xaa at position 13 is alpha-methyl-Leu; MOD_RES (17)..(17) Lys at position 17 is chemically modified by conjugation of the epsilon-amino group of the Lys side chain with (2-[2-(2-amino-ethoxy)-ethoxy]-acetyl)2-(gamma-Glu)-CO-(CH2)16- CO2H; (20)..(20) Xaa at position 20 is Aib; (24)..(24) Xaa at positi) [Peptide 221] | 5.66
Y-Aib-EGT-αMeF(2F)-TSDYSI-αMeL-LDEK((2-[2-(2-Amino-ethoxy)-ethoxy]-acetyl)2-(γGlu)-CO—(CH2)16—CO2H)AQ-Aib-EFIEYLIEGG-NH2 (YXEGTXTSDYSIXLDEKAQXEFIEYLIEGG; Aib, αMe residues, C18 diacid lipidation, C-amide; (2)..(2) Xaa at position 2 is Aib; (6)..(6) Xaa at position 6 is alpha-methyl-Phe(2F); (13)..(13) Xaa at position 13 is alpha-methyl-Leu; MOD_RES (17)..(17) Lys at position 17 is chemically modified by conjugation of the epsilon-amino group of the Lys side chain with (2-[2-(2-amino-ethoxy)-ethoxy]-acetyl)2-(gamma-Glu)-CO-(CH2)16- CO2H; (20)..(20) Xaa at position 20 is Aib; MOD_RES (30)..(30) Gly a) [Peptide 104] | 2.66
Y-Aib-EGT-αMeF(2F)-TSDYSI-αMeL-LDEK((2-[2-(2-Amino-ethoxy)-ethoxy]-acetyl)2-(γGlu)-CO—(CH2)18—CO2H)AQ-Aib-EFI-(D-Glu)--αMeY-LIEGGPSSGAPPPS-NH2 (YXEGTXTSDYSIXLDEKAQXEFIXXLIEGGPSSGAPPPS; Aib, αMeF(2F), αMeL, D-Glu, αMeY; lipidated K; amide; (2)..(2) Xaa at position 2 is Aib; (6)..(6) Xaa at position 6 is alpha-methyl-Phe(2F); (13)..(13) Xaa at position 13 is alpha-methyl-Leu; MOD_RES (17)..(17) Lys at position 17 is chemically modified by conjugation of the epsilon-amino group of the Lys side chain with (2-[2-(2-amino-ethoxy)-ethoxy]-acetyl)2-(gamma-Glu)-CO-(CH2)18- CO2H; (20)..(20) Xaa at position 20 is Aib; (24)..(24) Xaa at positi) [Peptide 222] | 3.77
Y-Aib-EGT-αMeF(2F)-TSDYSI-αMeL-LDEK((2-[2-(2-Amino-ethoxy)-ethoxy]-acetyl)2-(γGlu)-CO—(CH2)18—CO2H)AQ-Aib-EFI-(D-Glu)-YLIEGGPSSGAPPPS-NH2 (YXEGTXTSDYSIXLDEKAQXEFIXYLIEGGPSSGAPPPS; Aib, alphaMe residues, C20 diacid lipidation, C-amide; (2)..(2) Xaa at position 2 is Aib; (6)..(6) Xaa at position 6 is alpha-MeF(2F); (13)..(13) Xaa at position 13 is alpha-MeL; MOD_RES (17)..(17) K at position 17 is chemically modified by conjugation of the epsilon-amino group of the K side chain with (2-[2-(2-amino-ethoxy)-ethoxy]-acetyl)2-(gamma-Glu)-CO-(CH2)18- CO2H; (20)..(20) Xaa at position 20 is Aib; (24)..(24) Xaa at position 24 is D-Glu; MO) [Peptide 1] | 4.15
